Common to all, as to assay: cell-based or functional assay
Assay [1] deals with HIV-1AD8 Env (HIV-1 AD8).
Assay [2] concerns the target HIV-1BG505 Env (HIV-1 BG505).
Assay [3] deals with HIV-1C1086 Env (HIV-1 C1086).
Assay [4] has as its target HIV-1CM244 Env (HIV-1 CM244).
The target in assay [5] is HIV-1JRCSF Env (HIV-1 JRCSF) (UniProt P20871).
Assay [6] concerns the target HIV-1YU2 Env (HIV-1 YU2) (UniProt P35961).
In assay [7] the target is HIV-1ZM109 Env (HIV-1 ZM109).

Chain of HIV-1YU2 Env (HIV-1 YU2) (P35961 32-843 limits assumed): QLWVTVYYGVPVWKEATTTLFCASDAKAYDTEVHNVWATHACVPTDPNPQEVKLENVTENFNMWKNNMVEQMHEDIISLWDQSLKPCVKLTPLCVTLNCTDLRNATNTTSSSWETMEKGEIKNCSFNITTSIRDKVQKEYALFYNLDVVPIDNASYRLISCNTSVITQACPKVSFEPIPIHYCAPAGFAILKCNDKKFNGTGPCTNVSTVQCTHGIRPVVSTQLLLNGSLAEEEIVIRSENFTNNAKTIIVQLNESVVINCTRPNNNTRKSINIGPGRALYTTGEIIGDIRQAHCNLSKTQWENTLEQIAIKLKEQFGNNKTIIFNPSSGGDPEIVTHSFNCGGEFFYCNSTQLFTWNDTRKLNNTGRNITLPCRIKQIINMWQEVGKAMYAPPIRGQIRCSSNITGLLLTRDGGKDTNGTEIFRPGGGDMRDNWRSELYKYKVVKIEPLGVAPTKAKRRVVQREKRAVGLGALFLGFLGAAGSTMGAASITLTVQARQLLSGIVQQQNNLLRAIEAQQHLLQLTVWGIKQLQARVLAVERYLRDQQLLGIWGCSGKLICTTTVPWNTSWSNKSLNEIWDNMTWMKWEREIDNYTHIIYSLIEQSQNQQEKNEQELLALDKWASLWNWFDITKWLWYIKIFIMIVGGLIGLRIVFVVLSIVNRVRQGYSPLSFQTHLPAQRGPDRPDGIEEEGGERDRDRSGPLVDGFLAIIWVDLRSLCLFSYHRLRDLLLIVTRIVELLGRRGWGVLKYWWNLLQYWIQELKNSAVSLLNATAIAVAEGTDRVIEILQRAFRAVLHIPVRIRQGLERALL
Chain of HIV-1JRCSF Env (HIV-1 JRCSF) (P20871 32-848 limits assumed): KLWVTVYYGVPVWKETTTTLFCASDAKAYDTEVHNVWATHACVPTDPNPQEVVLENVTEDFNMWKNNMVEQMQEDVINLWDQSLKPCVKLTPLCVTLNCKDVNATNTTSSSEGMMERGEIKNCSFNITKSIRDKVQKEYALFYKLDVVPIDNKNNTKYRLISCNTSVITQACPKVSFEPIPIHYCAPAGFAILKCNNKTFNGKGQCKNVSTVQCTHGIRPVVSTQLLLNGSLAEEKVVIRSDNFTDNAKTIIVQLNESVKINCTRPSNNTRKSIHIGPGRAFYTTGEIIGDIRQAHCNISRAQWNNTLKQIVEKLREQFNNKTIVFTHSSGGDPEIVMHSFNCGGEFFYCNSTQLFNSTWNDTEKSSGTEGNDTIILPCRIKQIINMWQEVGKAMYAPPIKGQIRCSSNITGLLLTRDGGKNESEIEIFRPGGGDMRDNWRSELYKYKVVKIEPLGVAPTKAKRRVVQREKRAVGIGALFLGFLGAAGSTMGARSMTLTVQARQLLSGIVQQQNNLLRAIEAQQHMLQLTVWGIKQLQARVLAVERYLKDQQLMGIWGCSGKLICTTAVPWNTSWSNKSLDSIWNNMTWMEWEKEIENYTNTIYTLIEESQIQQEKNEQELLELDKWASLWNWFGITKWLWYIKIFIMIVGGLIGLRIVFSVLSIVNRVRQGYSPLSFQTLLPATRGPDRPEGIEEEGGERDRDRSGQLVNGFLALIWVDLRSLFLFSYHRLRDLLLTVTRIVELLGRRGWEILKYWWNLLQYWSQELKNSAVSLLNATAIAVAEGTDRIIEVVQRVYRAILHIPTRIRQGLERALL

For 17b-CD4 conjugate, the Neutralization IC50 in assay [1] turned out to be 0.877 µg/mL; in assay [2], 2.64 µg/mL; in assay [3] it was 0.269 µg/mL; in assay [4], 0.609 µg/mL; in assay [5] it was 0.807 µg/mL; in assay [6], 0.082 µg/mL. For the same substance, the Neutralization IC50 in assay [7] is 0.113 µg/mL.

These data come from patent US20240285790A1.
